Data as given in article PMC3105096, “Construction of Chimeric Dual-Chain Avidin by Tandem Fusion of the Related Avidins” (PLoS ONE, 2011).

Assays:
[1] = biological target: chimeric dual-chain avidin dcAVD/AVR4 (tandem fusion of circularly permuted avidin cp54 and circularly permuted AVR4 cp65) (chicken); test: SEC; Superdex 75 10/300 GL, 50 ug protein in 50 mM NaPO4 pH 7, 650 mM NaCl; column calibrated with Bio-Rad standards 1.5-67 kDa; dimer of the dual-chain polypeptide (pseudotetramer)
[2] = biological target: T1, AVR4(C122S); also printed AVR4(C112S) (Gallus gallus, UniProt P56734, C146S); test: SDS-PAGE thermostability of acylated protein; format: binding; conditions: thermal shift of subunit dissociation; Tr without biotin 90 °C; 140 µM D-biotin
T1 construct: recombinant AVR4 with cysteine-to-serine change, tetramer
T1 sequence (P56734 25-150 C146S): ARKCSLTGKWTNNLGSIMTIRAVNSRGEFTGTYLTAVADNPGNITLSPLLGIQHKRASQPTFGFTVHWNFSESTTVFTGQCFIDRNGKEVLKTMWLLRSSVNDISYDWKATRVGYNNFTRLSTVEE
Text: SDS-PAGE thermostability of acylated protein on AVR4(C122S); also printed AVR4(C112S)

Row | Molecule | stoichiometry N [1] | SDS-PAGE / Tr ^(+BTN) (°C) [2]
1 | chimeric dual-chain avidin dcAVD/AVR4 (tandem fusion of circularly permuted avidin cp54 and circularly permuted AVR4 cp65) | 2 | –
2 | O=C(O)CCCC[C@@H]1SC[C@@H]2NC(=O)N[C@@H]21 [D-biotin] | – | 95 °C
